Measured values taken from PMC3343632 (Nature cell biology, 2012).

Biological target: the molecule itself
Experiment: single-molecule TIRF microscopy with stepwise photobleaching

B1: GFP-tagged tailless kinesin-1 motor, taillessKhc::GFP (1-849) (domain or fragment, UniProt P17210 1-849, looked up)
chain: MSAEREIPAEDSIKVVCRFRPLNDSEEKAGSKFVVKFPNNVEENCISIAGKVYLFDKVFKPNASQEKVYNEAAKSIVTDVLAGYNGTIFAYGQTSSGKTHTMEGVIGDSVKQGIIPRIVNDIFNHIYAMEVNLEFHIKVSYYEIYMDKIRDLLDVSKVNLSVHEDKNRVPYVKGATERFVSSPEDVFEVIEEGKSNRHIAVTNMNEHSSRSHSVFLINVKQENLENQKKLSGKLYLVDLAGSEKVSKTGAEGTVLDEAKNINKSLSALGNVISALADGNKTHIPYRDSKLTRILQESLGGNARTTIVICCSPASFNESETKSTLDFGRRAKTVKNVVCVNEELTAEEWKRRYEKEKEKNARLKGKVEKLEIELARWRAGETVKAEEQINMEDLMEASTPNLEVEAAQTAAAEAALAAQRTALANMSASVAVNEQARLATECERLYQQLDDKDEEINQQSQYAEQLKEQVMEQEELIANARREYETLQSEMARIQQENESAKEEVKEVLQALEELAVNYDQKSQEIDNKNKDIDALNEELQQKQSVFNAASTELQQLKDMSSHQKKRITEMLTNLLRDLGEVGQAIAPGESSIDLKMSALAGTDASKVEEDFTMARLFISKMKTEAKNIAQRCSNMETQQADSNKKISEYEKDLGEYRLLISQHEARMKSLQESMREAENKKRTLEEQIDSLREECAKLKAAEHVSAVNAEEKQRAEELRSMFDSQMDELREAHTRQVSELRDEIAAKQHEMDEMKDVHQKLLLAHQQMTADYEKVRQEDAEKSSELQNIILTNERREQARKDLKGLEDTVAKELQTLHNLRKLFVQDLQQRIRKNVVNEESEEDGGSLA
stoichiometry N: 2
